Experimental data published in the supplement of paper PMC11246515.
± gives the standard deviation of the averaged measurements.

Test: total protein half-life in vivo (active degradation + dilution); higher = more stable protein
[1] = E. coli NCM3722 delta-clpP delta-lon delta-hslV, growth: N-lim chemostat, doubling time 6 h
[2] = E. coli NCM3722 delta-clpP, growth: N-lim chemostat, doubling time 6 h
[3] = E. coli NCM3722 delta-hslV, growth: N-lim chemostat, doubling time 6 h
[4] = E. coli NCM3722 delta-lon, growth: N-lim chemostat, doubling time 6 h
[5] = E. coli NCM3722 delta-smpB, growth: N-lim chemostat, doubling time 6 h
[6] = wild type E. coli NCM3722, growth: C-lim chemostat, doubling time 3 h
[7] = wild type E. coli NCM3722, growth: C-lim chemostat, doubling time 6 h
[8] = wild type E. coli NCM3722, growth: C-lim chemostat, doubling time 12 h
[9] = wild type E. coli NCM3722, growth: N-lim chemostat, doubling time 6 h
[10] = wild type E. coli NCM3722, growth: N-lim chemostat, doubling time 12 h
[11] = wild type E. coli NCM3722, growth: P-lim chemostat, doubling time 6 h
[12] = wild type E. coli NCM3722, growth: P-lim chemostat, doubling time 12 h

| Sequence | total protein half-life in vivo [1] | total protein half-life in vivo [2] | total protein half-life in vivo [3] | total protein half-life in vivo [4] | total protein half-life in vivo [5] | total protein half-life in vivo [6] | total protein half-life in vivo [7] | total protein half-life in vivo [8] | total protein half-life in vivo [9] | total protein half-life in vivo [10] | total protein half-life in vivo [11] | total protein half-life in vivo [12] |
| --- | --- | --- | --- | --- | --- | --- | --- | --- | --- | --- | --- | --- |
| MKKKIESYQGAAGGWGAVKSVANAVRKQMDIRQDVIAMFDMNKPEGFDCPGCAWPDPKHSASFDICENGAKAIAWEVTDKQVNASFFAENTVQSLLTWGDHELEAAGRLTQPLKYDAVSDCYKPLSWQQAFDEIGARLQSYSDPNQVEFYTSGRTSNEAAFLYQLFAREYGSNNFPDCSNMCHEPTSVGLAASIGVGKGTVLLEDFEKCDLVICIGHNPGTNHPRMLTSLRALVKRGAKMIAINPLQERGLERFTAPQNPFEMLTNSETQLASAYYNVRIGGDMALLKGMMRLLIERDDAASAAGRPSLLDDEFIQTHTVGFDELRRDVLNSEWKDIERISGLSQTQIAELADAYAAAERTIICYGMGITQHEHGTQNVQQLVNLLLMKGNIGKPGAGICPLRGHSNVQGDRTVGITEKPSAEFLARLGERYGFTPPHAPGHAAIASMQAICTGQARALICMGGNFALAMPDREASAVPLTQLDLAVHVATKLNRSHLLTARHSYILPVLGRSEIDMQKNGAQAVTVEDSMSMIHASRGVLKPAGVMLKSECAVVAGIAQAALPQSVVAWEYLVEDYDRIRNDIEAVLPEFADYNQRIRHPGGFHLINAAAERRWMTPSGKANFITSKGLLEDPSSAFNSKLVMATVRSHDQYNTTIYGMDDRYRGVFGQRDVVFMSAKQAKICRVKNGERVNLIALTPDGKRSSRRMDRLKVVIYPMADRSLVTYFPESNHMLTLDNHDPLSGIPGYKSIPVELEPSN | 5.48 ± 0.53 h | 3.76 ± 1.3 h | 4.01 ± 0.19 h | 4.01 ± 0.03 h | 3.52 ± 0.085 h | 2.35 ± 0.34 h | 2.95 ± 0.35 h | 3.6 ± 0.45 h | 3.5 ± 0.52 h | 4.87 ± 1.3 h | 3.7 ± 0.2 h | 4.31 ± 0.17 h |
| MQRKTLLSACIALALSGQGWAADITEVETTTGEKKNTNVTCPADPGKLSPEELKRLPSECSPLVEQNLMPWLSTGAAALITALAVVELNDDDDHHHRNNSPLPPTPPDDESDDTPVPPTPGGDEIIPDDPDDTPTPPKPVSFNNDVILDKTEKTLTIRDSVFTYTENADGTISLQDSNGRKATINLWQIDEANNTVALEGVSADGATKWQYNHNGELVITGDNATVNNNGKTTVDGKDSTGTEINGNNGKVIQDGDLDVSGGGHGIDITGDSATVDNKGTMTVTDPESMGIQIDGDKAIVNNEGESTITNGGTGTQINGDDATANNNGKTTVDGKDSTGTEINGNNGKVIQDGDLDVSGGGHGIDITGDSATVDNKGTMTVTDPESIGIQVDGDQAVVNNEGESAITNGGTGTQINGDDATANNNGKTTVDGKDSTGTEIAGNNGKVIQDGDLDVSGGGHGIDITGDSATVDNKGTMTVTDPESIGIQIDGDQAIVNNEGESTITNGGTGTQINGNDATANNSGKTTVDGKDSTGTKIAGNIGIVNLDGSLTVTGGAHGVENIGDNGTVNNKGDIVVSDTGSIGVLINGEGATVSNTGDVNVSNEATGFSITTNSGKVSLAGSMQVGDFSTGVDLNGNNNSVTLAAKDLKVVGQKATGINVSGDANTVNITGNVLVDKDKTADNAAEYFFDPSVGINVYGSDNNVTLDGKLTVVSDSEVTSRQSNLFDGSAEKTSGLVVIGDGNTVNMNGGLELIGEKNALADGSQVTSLRTGYSYTSVIVVSGESSVYLNGDTTISGEFPLGFAGVIRVQDKALLEIGSGATLTMQDIDSFEHHGTRTLDLPLYFQTSVIT | – | – | – | – | – | – | – | – | – | – | – | 11 ± 1.1 h |
| MQTSPLLTQLMEALRCLPGVGPKSAQRMAFTLLQRDRSGGMRLAQALTRAMSEIGHCADCRTFTEQEVCNICSNPRRQENGQICVVESPADIYAIEQTGQFSGRYFVLMGHLSPLDGIGPDDIGLDRLEQRLAEEKITEVILATNPTVEGEATANYIAELCAQYDVEASRIAHGVPVGGELEMVDGTTLSHSLAGRHKIRF [P0A7H6] | 5.56 ± 0.29 h | 5.19 ± 0.32 h | 4.36 ± 0.27 h | 4.59 ± 0.36 h | 4.21 ± 0.85 h | 2.52 ± 0.099 h | 4.09 h | 8.57 ± 0.99 h | 4.67 h | 6.74 ± 0.68 h | 4.79 ± 0.23 h | 8.59 h |
| MEISWGRALWRNFLGQSPDWYKLALIIFLIVNPLIFLISPFVAGWLLVAEFIFTLAMALKCYPLLPGGLLAIEAVFIGMTSAEHVREEVAANLEVLLLLMFMVAGIYFMKQLLLFIFTRLLLSIRSKMLLSLSFCVAAAFLSAFLDALTVVAVVISVAVGFYGIYHRVASSRTEDTDLQDDSHIDKHYKVVLEQFRGFLRSLMMHAGVGTALGGVMTMVGEPQNLIIAKAAGWHFGDFFLRMSPVTVPVLICGLLTCLLVEKLRWFGYGETLPEKVREVLQQFDDQSRHQRTRQDKIRLIVQAIIGVWLVTALALHLAEVGLIGLSVIILATSLTGVTDEHAIGKAFTESLPFTALLTVFFSVVAVIIDQQLFSPIIQFVLQASEHAQLSLFYIFNGLLSSISDNVFVGTIYINEAKAAMESGAITLKQYELLAVAINTGTNLPSVATPNGQAAFLFLLTSALAPLIRLSYGRMVWMALPYTLVLTLVGLLCVEFTLAPVTEWFMQMGWIATL [P0AFA7] | – | – | 6.59 ± 0.35 h | 6.07 ± 0.93 h | 6.4 ± 0.18 h | – | – | 13.8 ± 0.64 h | 5.91 ± 0.38 h | 11.2 ± 4.7 h | 6.58 ± 0.48 h | 12.8 ± 0.14 h |
| MPQQNYLDELTPAFTSLLAIKEASRCLLCHDAPCSQACPAQTDPGKFIRSIYFRNFKGAAETIRENNALGAVCARVCPTEKLCQSGCTRAGVDAPIDIGRLQRFVTDFEQQTGMEIYQPGTKTLGKVAIIGAGPAGLQASVTLTNQGYDVTIYEKEAHPGGWLRNGIPQFRLPQSVLDAEIARIEKMGVTIKCNNEVGNTLTLEQLKAENRAVLVTVGLSSGSGLPLFEHSDVEIAVDFLQRARQAQGDISIPQSALIIGGGDVAMDVASTLKVLGCQAVTCVAREELDEFPASEKEFTSARELGVSIIDGFTPVAVEGNKVTFKHVRLSGELTMAADKIILAVGQHARLDAFAELEPQRNTIKTQNYQTRDPQVFAAGDIVEGDKTVVYAVKTGKEAAEAIHHYLEGACSC | > 8 h | – | – | – | – | 1.14 ± 0.029 h | 1.42 ± 0.22 h | 2.52 ± 1.1 h | – | – | – | – |
| MIDVLGPEKRRRRTTQEKIAIVQQSFEPGMTVSLVARQHGVAASQLFLWRKQYQEGSLTAVAAGEQVVPASELAAAMKQIKELQRLLGKKTMENELLKEAVEYGRAKKWIAHAPLLPGDGE [P0CF42] | 2.54 ± 0.27 h | – | – | – | – | 0.121 h | – | 1.26 h | 0.716 h | 1.37 h | – | – |
| MNYQMITTDDALASLCEAVRAFPAIALDTEFVRTRTYYPQLGLIQLFDGEHLALIDPLGITDWSPLKAILRDPSITKFLHAGSEDLEVFLNVFGELPQPLIDTQILAAFCGRPMSWGFASMVEEYSGVTLDKSESRTDWLARPLTERQCEYAAADVWYLLPITAKLMVETEASGWLPAALDECRLMQMRRQEVVAPEDAWRDITNAWQLRTRQLACLQLLADWRLRKARERDLAVNFVVREEHLWSVARYMPGSLGELDSLGLSGSEIRFHGKTLLALVEKAQTLPEDALPQPMLNLMDMPGYRKAFKAIKSLITDVSETHKISAELLASRRQINQLLNWHWKLKPQNNLPELISGWRGELMAEALHNLLQEYPQ | 4.11 ± 0.93 h | 4.41 ± 1.4 h | 3.88 ± 0.32 h | 4.79 ± 1.2 h | 3.65 ± 0.37 h | > 4 h | 5.23 ± 0.24 h | 10 ± 0.67 h | 3.834 ± 0.0071 h | 6.31 ± 1.4 h | 5.82 ± 0.58 h | 11.8 ± 1.5 h |
| MFLVDSHCHLDGLDYESLHKDVDDVLAKAAARDVKFCLAVATTLPGYLHMRDLVGERDNVVFSCGVHPLNQNDPYDVEDLRRLAAEEGVVALGETGLDYYYTPETKVRQQESFIHHIQIGRELNKPVIVHTRDARADTLAILREEKVTDCGGVLHCFTEDRETAGKLLDLGFYISFSGIVTFRNAEQLRDAARYVPLDRLLVETDSPYLAPVPHRGKENQPAMVRDVAEYMAVLKGVAVEELAQVTTDNFARLFHIDASRLQSIR [P0AFQ7] | 4.81 ± 0.12 h | 3.33 ± 0.04 h | 3.06 ± 0.22 h | 3.76 ± 0.27 h | 2.97 ± 0.21 h | 2.46 ± 0.053 h | 4.73 ± 0.61 h | 9.89 ± 2.7 h | 3.63 ± 0.31 h | 5.34 ± 1.1 h | 4.39 ± 0.14 h | 7.55 ± 0.79 h |
